In the supplement of paper PMC9170038:

System: MS2 coat protein
Experiment: apparent KD of MS2 coat protein; designed switch direction (-1 OFF switch, 1 ON switch): 1; higher = weaker reporter binding
In short: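 Designed RNA switches with common flanks were made on Illumina chips by stalled E. coli RNA polymerase. Titration with SNAP-549-labelled MS2 coat protein doubled from 0.7 or 1.5 nM up to 3 µM. Apparent KD is each design's median over clusters after curve-fitting normalised fluorescence.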

[1] = input ligand: microRNA oligo, concentration not stated
[2] = Eterna round: R95, input ligand: FMN 200 uM
[3] = Eterna round: R95, input ligand: microRNA oligo, concentration not stated
[4] = Eterna round: R95, input ligand: none

Sequence | apparent KD of MS2 coat protein (input ligand: FMN 200 uM) | apparent KD of MS2 coat protein [1] | apparent KD of MS2 coat protein (input ligand: none) | apparent KD of MS2 coat protein [2] | apparent KD of MS2 coat protein [3] | apparent KD of MS2 coat protein [4]
GUUAGGAAUCUAGCCAACAUGAGGAUCACCCAUGUUAGUGGGAAGGAUAUGGUACAGAAACUGUACCAGAAGGUCUUAUUGUUU [Omei SS(NG) 3 AV10] (Eterna round: R96, puzzle: Same State NG 3) | 75.4 nM | 54.6 nM | 96.6 nM |  |  | 
UGGUACAUGGGAGGAUAUCCUCAUGAGACAUGAGGAUCACCCAUGUAUUAUAAGCCGAAAGGCAUGGAGAAGGCCCAUGUACCU [JL SSNG1 3.83] (Eterna round: R96, puzzle: Same State NG 2) | 25 nM | 269 nM | 455 nM |  |  | 
GCGGAACAUGAGGAUCACCCAUGUGGAGGGUGUAAAGGAUAUUAUAGAGAGAAGGUAGGGUAAGAAGGUUGCUUGG [JR_SS1_Sub089] (puzzle: Same State 1) |  |  |  | 202 nM | 96 nM | 541 nM
UUAACAUGAGGAUCACCCAUGUAUAGGGAGUUAGCAAUUGGACAGGAUAUUGAAGAUGUAGAUAGCAAGAAGGGUCGGUAGUCU [JR_SSNG3_Sub002] (Eterna round: R96, puzzle: Same State NG 3) | 36.8 nM | 32.9 nM | 46.7 nM |  |  | 
AUAAGGCAAGCUUUUUUCUCGUAAUGUAAACAUGAGGAUCACCCAUGUGCCCAUCCUGGAUCUUUGGAUCGCAGAAC [Usbexe] (puzzle: Sensor for hsa-mir-208a) |  |  |  | 34.6 nM | 25.9 nM | 40.7 nM
GGCGUAUAAACAUGAGGAUCACCCAUGUAGCGGAGACGCAAUGAGGAUAUCGAUGGGUUUCCCGUCGAGAAGGCAUGGGUCGCC [JL SSNG3 3.93] (Eterna round: R96, puzzle: Same State NG 3) | 17 nM | 79.9 nM | 105 nM |  |  | 
AAGAGAGAAAUACAGGAUAUGAGGAGAGGAACAUGAGGAUCACCCAUGUGAGAGAAAGGGAAGAAUCAGAAGGGUAGAGAAGAGA [JR_SS2_Sub002] (puzzle: Same State 2) |  |  |  | 31.8 nM | 47 nM | 73.8 nM
GGUAGGUUACUACCAAACAUGAGGAUCACCCAUGUAAGUGGGAAGGAUAUGGUACCUUUUAGGUACCAGAAGGUCCAUAUAUUU [JL Fiskers NG3ss - 2 mod 8] (Eterna round: R96, puzzle: Same State NG 3) | 231 nM | 847 nM | 1140 nM |  |  | 
GCUAGGAUAUGACGAGGAUCACCCGUUAGAAGGAGCGAAAGCUAGGAUAUGACGAGGAUCACCCGUUAGAAGGAGCUGUCCUCU [pwkr ssNG3 DX 2xF5 +2xFMN.11] (Eterna round: R96, puzzle: Same State NG 3) | 200 nM | 80.1 nM | 111 nM |  |  | 
GGAGCCGGCACCGAGGAUAUUCAUAUUAAAACAUGAGGAUCACCCAUGUGGGCCAGAAGGCCUUGGGAGAAGGCGGAUCGGCUCG [Xeonanis - 1] (puzzle: Same State 2) |  |  |  | 15.6 nM | 216 nM | 425 nM
AUUGCUAGCACAGGAUAUCAUGCGAAAAUUGCGUGAGAAGGGUGGACGCUGUCAUUCACGGAAGACAUGAGGAUCACCCAUGUC [SameState NG1 #77] (Eterna round: R96, puzzle: Same State NG 1) | 44.6 nM | 56.2 nM | 88.1 nM |  |  | 
UCUUGGUUUUUGCUCGUUUUUUGUGUUGAACAUGAGGAUCACCCAUGUAUUGUACGGUCCGGUUUAGUAGUGGUCCA [JMF 44] (puzzle: Sensor for hsa-mir-208a) |  |  |  | 118 nM | 92.8 nM | 144 nM
AUUAUUAAUGCAGGAUAUGAUUAACAUGAGGAUCACCCAUGUGGUGUUGUGAGUAAGGAGAGUGAUCAGAAGGGCAAUUUUUUU [JMF's solution 7] (Eterna round: R96, puzzle: Same State NG 2) | 382 nM | 633 nM | 340 nM |  |  | 
UGAAUAAUGAUAGGAUAUACAUGAGGAAUCCUCGUAGAAGGAUCAUGACAUGAGGAUCACCCAUGUAGCGCUCAGAAGAGCGCA [Mat - Same State NG 1 - JL mod - D51] (Eterna round: R96, puzzle: Same State NG 1) | 160 nM | 76.7 nM | 191 nM |  |  | 
GGUGUACAUGAGGAUCACCCAUGUCGUACGACAUGAGGAUAUGUACAGACUUCGGUCUGUACAGAAGGCAUGUGUC [SS1 - 1011 Omei Mod 5] (puzzle: Same State 1) |  |  |  |  | 210 nM | 
AGUCCACGCUGACGUGGACAAAAGCAUGUACAUGAGGAUCACCCAUGUCAUGUACAAGCUUUUUGCUCGUCUUAAAA [Mat - hsa-mir-208a - Mod of JL - D17] (puzzle: Sensor for hsa-mir-208a) |  |  |  | 543 nM | 14.7 nM | 1680 nM

Sequence | apparent KD of MS2 coat protein (input ligand: FMN 200 uM) | apparent KD of MS2 coat protein [1] | apparent KD of MS2 coat protein (input ligand: none) | apparent KD of MS2 coat protein [2] | apparent KD of MS2 coat protein [3] | apparent KD of MS2 coat protein [4]
GGUUUAGCCAGGUGCAGUUGCACCUGAAAACAUGAGGAUCACCCAUGUUUGGGACAAGCUUUGCUCCUCGUCUUUCC [Isusreraar] (puzzle: Sensor for hsa-mir-208a) |  |  |  | 267 nM | 38.7 nM | 364 nM
UUCCCAGCGGGAGGAUAUGGUGCCUUGUUGGUGCUAGAAGGUCCAACAUGAGGAUCACCCAUGUGGGAGUGGUCGAAAGACCUC [SS NG10LRO09] (Eterna round: R96, puzzle: Same State NG 1) | 224 nM | 186 nM | 318 nM |  |  | 
AAGGUCAAGAUAGGAUAUGUUUCAUGAUAGAUAACAGAAGGAUCUAGAACAUGAGGAUCACCCAUGUGGCACAUAGAGUGGUGA [Default title] (Eterna round: R96, puzzle: Same State NG 1) |  | 284 nM |  |  |  | 
AUACAUGAGGAUCACCCAUGUAAUUAAUUAAUUAAUAAGAUCUAGGAUAUCAGCUCGAAUAGAGCUGAGAAGGAGAUCACAUGU [SSNG3/21-B1] (Eterna round: R96, puzzle: Same State NG 3) |  | 19.4 nM |  |  |  | 
AGAAGACAUGAGGAUCACCCAUGUACAUAAUGAGGAGAAUGGGAGGAUAUGCAGAGAGAGAGGGAGCAGAAGGUCCAGUAUGAA [Default title] (Eterna round: R96, puzzle: Same State NG 3) | 44.4 nM | 51.6 nM | 105 nM |  |  | 
GGAGCCGACACCGAGGAUAUUCAUAUUAAAACAUGAGGAUCACCCAUGUAGGCCAGAAGGCCUUGGGAGAAGGCGGAUCGGCUCG [Xeonanis - 8] (puzzle: Same State 2) |  |  |  | 21.2 nM | 240 nM | 301 nM
CCCUGAGGUAACCUACAGGGACAUGAGGAUCACCCAUGUACACAGGAUAUCGAAGGCUCCGCCCUCGAGAAGGGUGAUCAAACU [Leuslein] (Eterna round: R96, puzzle: Same State NG 3) | 1520 nM | 266 nM | 109 nM |  |  | 
UACAAUCUAUCUGAGGAUAUCAUGAUUAUAACAUGAGGAUCACCCAUGUGCAGGAAAACUGCAUAUGAGAAGGCAGAUAGAUUGU [salish99_ss2_r3_069] (puzzle: Same State 2) |  |  |  | 228 nM | 1630 nM | 110 nM
UAGAAACAUGAGGAUCACCCAUGUGUCAGAGACAUAGGAUAUCGUAACCAGCGCCGGAUACGAGAAGGGUGGUAAA [Enraxe] (puzzle: Same State 1) |  |  |  | 156 nM | 38.5 nM | 51.3 nM
AAAGAAAACAUAGGAUAUGUAACAUGAGGAUCACCCAUGUAUACCUCGUAAGAGAUGAUGGAUGGACAGAAGGAUGGUCUCAGG [Default title] (Eterna round: R96, puzzle: Same State NG 2) | 134 nM | 73.7 nM | 80.6 nM |  |  | 
AGUCCACGCUGACGUGGACAAAAGCAUGUACAUGAGGAUCACCCAUGUCAUGUACAAGCUUUUUGCUCGUCUUAAUA [Mat - hsa-mir-208a - Mod of JL - D43] (puzzle: Sensor for hsa-mir-208a) |  |  |  | 478 nM | 14.9 nM | 549 nM
CCUUCGGGAGUAGGAUAUGUAGGAUAUGCCUACAUGAGGAUCACCCAUGUUCGCAUGGCAGAAGGACAGAAGGACACGUUCGCG [pwkr ssNG2 2FMN + 1F5.13] (Eterna round: R96, puzzle: Same State NG 2) | 95.4 nM | 287 nM | 652 nM |  |  | 
AAUCAACAUGAGGAUCACCCAUGUCACACAAAGUGAGGAUAUUGGAAAUAAAUAAUAAAACGAGAAGGCGCUGCGG [OBB] (puzzle: Same State 1) |  |  |  | 26.6 nM | 44.5 nM | 60 nM
GGUAUCGGCGCAGGAUAUGCUAUCCUUUGGGUAGCAGAAGGGUGAACAUGAGGAUCACCCAUGUAGGUGCCAGGGCGUGAGCCC [JL SSNG1 1.81] (Eterna round: R96, puzzle: Same State NG 1) | 1130 nM | 147 nM | 444 nM |  |  | 
AGCUAGUACCGAGGAUAUACGUACAUGAGGAUCACCCAUGUAUACAUGAAUUAAUGAGACUACAUGUAGAAGGCGGUACUAGCA [Mat - Same State NG 2 - JL mod - D49] (Eterna round: R96, puzzle: Same State NG 2) |  | 34.3 nM |  |  |  | 
GGCUAUCGCGUACGAUAGCUUAAGCAUGUACAUGAGGAUCACCCAUGUCAUGUACAGGCUUUUUGCUCGUCUUAUUG [JL-shm-2.35 JL mod] (puzzle: Sensor for hsa-mir-208a) |  |  |  | 517 nM | 17 nM | 467 nM
